This test addresses Halo-HIF-1β (endogenously HaloTag-tagged HIF-1β, knock-in clone A21) (human (endogenous in 786-O)) (UniProt P27540).

HIF-2α N-terminally fused with 3xFLAG tag through a short peptide linker sequence (GDGAGLIN), sequence (Q99814 whole entry, the tested form may be a part): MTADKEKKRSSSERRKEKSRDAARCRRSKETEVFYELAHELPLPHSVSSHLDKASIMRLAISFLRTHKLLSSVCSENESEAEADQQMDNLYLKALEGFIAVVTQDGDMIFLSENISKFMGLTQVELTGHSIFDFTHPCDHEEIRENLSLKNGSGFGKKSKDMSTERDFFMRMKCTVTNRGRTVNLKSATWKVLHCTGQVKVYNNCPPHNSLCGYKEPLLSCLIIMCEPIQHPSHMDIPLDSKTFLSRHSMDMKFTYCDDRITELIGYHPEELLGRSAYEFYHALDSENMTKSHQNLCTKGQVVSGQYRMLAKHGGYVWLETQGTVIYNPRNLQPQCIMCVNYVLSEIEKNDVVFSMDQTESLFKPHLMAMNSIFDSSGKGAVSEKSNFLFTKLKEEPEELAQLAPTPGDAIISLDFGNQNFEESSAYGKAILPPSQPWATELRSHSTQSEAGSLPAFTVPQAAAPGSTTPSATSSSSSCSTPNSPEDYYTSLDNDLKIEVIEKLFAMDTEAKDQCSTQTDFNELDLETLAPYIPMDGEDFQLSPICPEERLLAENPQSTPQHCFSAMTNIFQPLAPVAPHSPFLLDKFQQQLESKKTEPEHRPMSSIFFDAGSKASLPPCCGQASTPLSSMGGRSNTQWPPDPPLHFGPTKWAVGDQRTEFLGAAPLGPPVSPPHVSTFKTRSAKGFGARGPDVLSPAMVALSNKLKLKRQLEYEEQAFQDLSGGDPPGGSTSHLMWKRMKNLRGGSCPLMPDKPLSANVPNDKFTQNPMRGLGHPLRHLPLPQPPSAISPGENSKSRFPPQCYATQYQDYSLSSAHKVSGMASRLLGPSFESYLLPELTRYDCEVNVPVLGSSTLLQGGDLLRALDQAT
Halo-HIF-1β (endogenously HaloTag-tagged HIF-1β, knock-in clone A21) (human (endogenous in 786-O)), sequence (P27540 whole entry): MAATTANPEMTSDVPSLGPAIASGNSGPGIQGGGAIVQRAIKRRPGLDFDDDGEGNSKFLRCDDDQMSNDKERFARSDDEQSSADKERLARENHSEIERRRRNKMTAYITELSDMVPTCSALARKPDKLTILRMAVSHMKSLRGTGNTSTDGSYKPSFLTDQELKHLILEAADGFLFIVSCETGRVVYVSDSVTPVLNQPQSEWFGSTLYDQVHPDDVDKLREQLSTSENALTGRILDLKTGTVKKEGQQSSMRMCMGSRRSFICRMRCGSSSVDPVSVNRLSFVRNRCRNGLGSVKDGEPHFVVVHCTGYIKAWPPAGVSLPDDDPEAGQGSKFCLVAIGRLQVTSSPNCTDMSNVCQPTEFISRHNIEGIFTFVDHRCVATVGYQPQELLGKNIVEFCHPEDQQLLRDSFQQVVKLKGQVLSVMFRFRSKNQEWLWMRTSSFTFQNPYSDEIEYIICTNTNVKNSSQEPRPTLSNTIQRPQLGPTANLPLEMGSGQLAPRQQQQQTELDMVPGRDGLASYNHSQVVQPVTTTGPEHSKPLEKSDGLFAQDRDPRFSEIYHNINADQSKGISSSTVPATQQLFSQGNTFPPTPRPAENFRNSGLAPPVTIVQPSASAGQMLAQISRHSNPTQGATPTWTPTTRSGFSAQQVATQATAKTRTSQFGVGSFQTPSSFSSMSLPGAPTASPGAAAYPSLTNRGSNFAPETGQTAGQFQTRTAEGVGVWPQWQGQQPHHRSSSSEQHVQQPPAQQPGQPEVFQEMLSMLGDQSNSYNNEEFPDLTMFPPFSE

Regarding “HIF-2α N-terminally fused with 3xFLAG tag through a short peptide linker sequence (GDGAGLIN) (from UniProt Q99814 1-870) (natural protein)”, the fSPT of endogenous Halo-HIF-1β in live 786-O KIN cells stably overexpressing HIF-2α: bound fraction of Halo-HIF-1β (diffusion coefficient <0.1 μm^2/s, presumably chromatin-bound) was < 50%.

For the origin of these results see paper PMC9681212.
